From IntAct's records for PubMed 14978263

Biological target: csk21_arath CKA1 (UniProt Q08467)
Sequence (Q08467 whole entry): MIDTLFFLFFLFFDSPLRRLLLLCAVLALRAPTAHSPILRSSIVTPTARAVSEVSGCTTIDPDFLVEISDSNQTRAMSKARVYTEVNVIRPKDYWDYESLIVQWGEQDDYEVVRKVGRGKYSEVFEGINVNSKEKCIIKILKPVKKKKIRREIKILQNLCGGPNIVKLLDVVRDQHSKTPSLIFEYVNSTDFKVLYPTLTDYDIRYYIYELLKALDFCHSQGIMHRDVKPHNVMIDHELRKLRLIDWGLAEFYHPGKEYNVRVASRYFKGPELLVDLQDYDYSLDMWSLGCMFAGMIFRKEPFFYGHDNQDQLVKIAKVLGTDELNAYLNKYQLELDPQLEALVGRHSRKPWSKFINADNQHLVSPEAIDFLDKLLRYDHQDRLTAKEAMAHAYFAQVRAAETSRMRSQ

Protein CCA1 (Arabidopsis thaliana (Mouse-ear cress)), P92973 S6A, sequence (P92973 whole entry S6A): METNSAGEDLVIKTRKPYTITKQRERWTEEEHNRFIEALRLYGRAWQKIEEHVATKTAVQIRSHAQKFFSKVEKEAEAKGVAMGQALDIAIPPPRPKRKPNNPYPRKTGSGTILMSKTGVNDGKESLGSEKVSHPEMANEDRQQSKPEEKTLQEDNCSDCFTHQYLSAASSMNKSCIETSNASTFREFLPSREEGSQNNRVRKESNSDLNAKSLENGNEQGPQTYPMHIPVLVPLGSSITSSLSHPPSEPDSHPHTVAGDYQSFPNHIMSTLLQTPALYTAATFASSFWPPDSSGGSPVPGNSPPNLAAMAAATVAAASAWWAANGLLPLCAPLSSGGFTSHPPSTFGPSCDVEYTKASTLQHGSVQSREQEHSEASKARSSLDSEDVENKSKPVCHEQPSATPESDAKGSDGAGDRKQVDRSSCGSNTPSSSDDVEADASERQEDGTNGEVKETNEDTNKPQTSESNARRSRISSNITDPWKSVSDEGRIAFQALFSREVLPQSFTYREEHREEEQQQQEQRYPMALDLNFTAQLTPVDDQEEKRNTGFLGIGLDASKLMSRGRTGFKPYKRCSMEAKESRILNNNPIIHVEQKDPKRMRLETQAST
Protein CCA1 (Arabidopsis thaliana (Mouse-ear cress)), P92973 S5A, sequence (P92973 whole entry S5A): as the sequence (P92973 whole entry S6A) above, with S5A, A6S counted along it

Substance | effect of a mutation on the interaction
Protein CCA1 (Arabidopsis thaliana (Mouse-ear cress)), P92973 S5A | decreasing interaction
Protein CCA1 (Arabidopsis thaliana (Mouse-ear cress)), P92973 S6A | decreasing interaction
Protein CCA1 (Arabidopsis thaliana (Mouse-ear cress)), P92973 S431A | decreasing interaction
Protein CCA1 (Arabidopsis thaliana (Mouse-ear cress)), P92973 S432A | decreasing interaction
Protein CCA1 (Arabidopsis thaliana (Mouse-ear cress)), P92973 S433A | decreasing interaction
Protein CCA1 (Arabidopsis thaliana (Mouse-ear cress)), P92973 S484A | decreasing interaction
